# What was measured:
# Endogenous NAPA = molecular target: T1, Endogenous NAPA (human (endogenous in HEK 293), UniProt P54920 1-295); experiment: co-IP; endogenous PPP2CB or NAPA immunoprecipitated with its antibody and protein A agarose from HEK AC5/D2L cell lysate (0.5% C12E10, 150 mM NaCl, pH 7.5); AC activity measured in the immunoprecipitate with activated Gαs and FSK; cells under vehicle conditions (PPP2CB) or treated overnight with quinpirole (NAPA); conditions: partners not purified
# T1 construct: NSF attachment protein alpha, endogenous in HEK 293 cells; also called NSF attachment protein alpha; source: endogenous, HEK AC5/D2L cell lysate
# T1 sequence (looked up): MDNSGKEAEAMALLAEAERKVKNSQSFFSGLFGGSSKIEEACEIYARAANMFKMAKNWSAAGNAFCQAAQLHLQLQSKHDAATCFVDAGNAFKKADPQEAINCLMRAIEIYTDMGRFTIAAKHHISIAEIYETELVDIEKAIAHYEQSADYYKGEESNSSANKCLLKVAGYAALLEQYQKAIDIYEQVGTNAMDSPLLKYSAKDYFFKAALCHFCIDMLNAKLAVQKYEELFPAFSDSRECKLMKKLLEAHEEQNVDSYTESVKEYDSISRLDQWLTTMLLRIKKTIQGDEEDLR
# Endogenous PPP2CB = molecular target: T2, Endogenous PPP2CB (human (endogenous in HEK 293), UniProt P62714 1-309); experiment: as above; conditions: partners not purified
# T2 construct: protein phosphatase 2A catalytic subunit beta, endogenous in HEK 293 cells; also called protein phosphatase 2A (PP2A) catalytic subunit; source: endogenous, HEK AC5/D2L cell lysate
# T2 sequence (P62714 whole entry): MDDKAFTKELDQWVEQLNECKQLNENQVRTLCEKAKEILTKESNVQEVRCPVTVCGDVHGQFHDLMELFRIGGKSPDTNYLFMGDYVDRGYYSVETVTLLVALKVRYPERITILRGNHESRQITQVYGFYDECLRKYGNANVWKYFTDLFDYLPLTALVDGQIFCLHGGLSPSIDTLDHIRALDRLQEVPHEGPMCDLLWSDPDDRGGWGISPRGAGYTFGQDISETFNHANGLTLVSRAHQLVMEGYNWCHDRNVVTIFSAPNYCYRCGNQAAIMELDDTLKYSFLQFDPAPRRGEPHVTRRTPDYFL
binder,measurement,setting,value
"human AC type 5 (in HEK-AC5/D2L cells) (enzyme, adenylyl cyclase type 5 (AC5), human; Found in the immunoprecipitates by its adenylyl cyclase activity, not by a blot; also called adenylyl cyclase type 5; source: HEK 293 cells stably expressing human D2L and human AC5 (HEK-AC5/D2L), in lysate) not shown",fold AC activity in the immunoprecipitate against the vehicle-treated group,Endogenous NAPA,4.5 fold
same,fold AC activity in the immunoprecipitate against the control,Endogenous PPP2CB,4 fold

# Reference: paper PMC6912275, “Identification of Novel Adenylyl Cyclase 5 (AC5) Signaling Networks in D1 and D2 Medium Spiny Neurons using Bimolecular Fluorescence Complementation Screening” (Cells, 2019)
